Experimental data published in article PMC4218836 (2014).
Residue numbers refer to the chain shown, from its start.

Columns and labels:
GST-RhoAL63 [1] = biological target: T1, GST-RhoAL63 (UniProt P61586 1-193, L63); assay: SPR
GST-RhoBL63 [2] = biological target: T2, GST-RhoBL63 (UniProt P62745 1-196, L63); assay: SPR
GST-RhoAL63 [3] = biological target: T1, GST-RhoAL63; assay: SPR; remark: listed apart in the source
GST-RhoBL63 [4] = biological target: T2, GST-RhoBL63; assay: SPR; remark: listed apart in the source
6xHis-RhoBL63 = 6xHis-RhoBL63 (UniProt P62745 1-196, L63); assay: ELISA
6xHis-RhoAL63 = 6xHis-RhoAL63 (UniProt P61586 1-193, L63); assay: ELISA
6xHis-RhoAL63, sequence (P61586 other isoform, or with tags, fused parts or gaps L63): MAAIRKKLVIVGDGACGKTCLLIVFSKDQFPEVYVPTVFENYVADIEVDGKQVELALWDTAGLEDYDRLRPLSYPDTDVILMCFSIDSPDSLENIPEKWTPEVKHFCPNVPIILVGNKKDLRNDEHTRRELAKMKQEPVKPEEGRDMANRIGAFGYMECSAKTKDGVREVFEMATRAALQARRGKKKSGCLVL

T1 sequence (P61586 other isoform, or with tags, fused parts or gaps L63): as above
T2 sequence (P62745 other isoform, or with tags, fused parts or gaps L63): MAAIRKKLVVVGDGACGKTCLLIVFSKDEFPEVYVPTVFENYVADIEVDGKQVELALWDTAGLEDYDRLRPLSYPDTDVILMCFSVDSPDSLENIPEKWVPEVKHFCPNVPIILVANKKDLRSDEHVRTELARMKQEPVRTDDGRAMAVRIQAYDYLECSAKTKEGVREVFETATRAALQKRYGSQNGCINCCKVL
6xHis-RhoBL63, sequence (P62745 other isoform, or with tags, fused parts or gaps L63): as above

B1: scFvE3 (soluble, in fusion with the N-terminal domain of the phage P3 protein) (scFv, V domains shown)
VH: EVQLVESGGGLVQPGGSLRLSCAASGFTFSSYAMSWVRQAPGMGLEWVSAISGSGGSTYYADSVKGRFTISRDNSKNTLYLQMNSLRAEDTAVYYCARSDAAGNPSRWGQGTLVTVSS
VL: SSELTQDPAVSVALGQTVRITCQGDSLRSYYTSWYQQKPGQAPVRVIYGKNNRPSGVPDRFSGSSSGNTASLTITGAQAEDEADYYCNSRDSSGNHAYVFGGGTKLTVL
- Kd (GST-RhoAL63 [1]): 36.9 nM
- Kd (GST-RhoBL63 [2]): 3.14 nM
- koff (GST-RhoAL63 [3]): 0.0176 s⁻¹
- koff (GST-RhoBL63 [4]): 0.000683 s⁻¹

B2: scFvA5 (soluble, in fusion with the N-terminal domain of the phage P3 protein) (scFv, V domains shown)
VH: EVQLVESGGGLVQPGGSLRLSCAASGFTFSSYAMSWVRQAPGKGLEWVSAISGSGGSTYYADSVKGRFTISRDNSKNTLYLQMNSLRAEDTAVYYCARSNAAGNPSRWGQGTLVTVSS
VL: B1 VL with T32A, R45L, V57I
- Kd (6xHis-RhoBL63): 24 nM
- Kd (6xHis-RhoAL63): 24.5 nM

B3: scFvF7 (soluble, in fusion with the N-terminal domain of the phage P3 protein) (scFv, V domains shown)
VH: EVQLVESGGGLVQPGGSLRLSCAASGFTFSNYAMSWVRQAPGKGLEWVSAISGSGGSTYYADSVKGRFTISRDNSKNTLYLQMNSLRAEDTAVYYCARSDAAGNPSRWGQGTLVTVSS
VL: B1 VL with T32A, R45L, V57I, S89T
- Kd (GST-RhoAL63 [1]): 2.35 nM
- Kd (GST-RhoBL63 [2]): 3.39 nM
- koff (GST-RhoAL63 [3]): 0.000248 s⁻¹
- koff (GST-RhoBL63 [4]): 0.000414 s⁻¹

B4: scFvD10 (soluble, in fusion with the N-terminal domain of the phage P3 protein) (scFv, V domains shown)
VH: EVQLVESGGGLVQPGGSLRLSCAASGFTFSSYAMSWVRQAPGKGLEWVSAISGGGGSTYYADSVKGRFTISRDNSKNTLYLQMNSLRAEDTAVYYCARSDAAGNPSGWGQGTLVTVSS
VL: B1 VL with T32A, R45L, V57I
- Kd (GST-RhoAL63 [1]): 39.6 nM
- koff (GST-RhoAL63 [3]): 0.00297 s⁻¹
